Assay results: patent US6677124

Assays:
[1] = target: human brain natriuretic peptide (hBNP) (human); assay: Scatchard plot from the hBNP standard curve of the radioimmunoassay
[2] = target: monoclonal antibody BC203; assay: competitive radioimmunoassay: unlabeled hBNP against 125I-labeled Tyr0-hBNP on BC203 (ascites BC203A diluted 42,000-fold), PEG precipitation

Chain of human brain natriuretic peptide (hBNP) (peptide): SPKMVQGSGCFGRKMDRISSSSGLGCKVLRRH
Chain of human brain natriuretic peptide (hBNP) (human) (peptide, as listed by the source): as the sequence (peptide) above

Row | Substance | Ka [1] [M⁻¹] | 90% inhibitory concentration [2] [ng/mL] | IC50 [2] [µg/mL]
1 | monoclonal antibody BC203 | 1.3e+09 | – | –
2 | human brain natriuretic peptide (hBNP) | – | 1.3 | 0.0118
